Measured values published in paper PMC4355161.
Read-outs that look alike come from different tables or passages of the source.

Legend:
[1] = molecular target: 0/20 H2A T11C-Cy3 nucleosomes (UniProt P06897); experiment: FRET or BRET
[2] = molecular target: 0/20 Cy3 DNA(+20) nucleosomes; experiment: FRET or BRET
[3] = molecular target: 0/20 Cy3 DNA(−25) nucleosomes; experiment: FRET or BRET
[4] = molecular target: 0/20 H2A T11C-Cy3 nucleosomes (UniProt P06897); experiment: FRET or BRET; remark: listed apart in the source
[5] = molecular target: 0/20 Cy3 DNA(+20) nucleosomes; experiment: FRET or BRET; remark: listed apart in the source
[6] = molecular target: 0/20 Cy3 DNA(−25) nucleosomes; experiment: FRET or BRET; remark: listed apart in the source
[7] = molecular target: 30/30 nucleosomes labeled with Cy3 on H4 A15C (UniProt P62799); experiment: other fluorescence titration

| FRET ratio [1] | FRET ratio [2] | FRET ratio [3] | FRET ratio [4] | FRET ratio [5] | FRET ratio [6] | fold preference over core nucleosomes [7] | fold tighter binding than to core nucleosomes [7] | Substance |
| --- | --- | --- | --- | --- | --- | --- | --- | --- |
| 0.39 | 0.51 | 0.4 | 0.56 | 0.34 | 0.49 | – | – | SNF2h A930C-Cy5 (from UniProt O60264 1-729; O60264 730-1052) (enzyme) |
| – | – | – | – | – | – | 4.9 fold | 2.1 fold | wild type SNF2h (from UniProt O60264 1-1052) (enzyme) |
